The results in this text go back to patent US20040265295A1 (WISCONSIN ALUMNI RESEARCH FOUNDATION, published 2004).

The assay concerns the target T1, talin (Homo sapiens (Human), UniProt Q9Y490 1-2541).
T1 construct: Endogenous talin of HEK293T (and other) cells, detected with anti-talin antibody; also called talin (endogenous, in cell lysates)
As to the kind of experiment: immunoprecipitation of talin from HEK293T cells overexpressing the kinase.

T1 sequence (Q9Y490 other isoform, or with tags, fused parts or gaps limits assumed): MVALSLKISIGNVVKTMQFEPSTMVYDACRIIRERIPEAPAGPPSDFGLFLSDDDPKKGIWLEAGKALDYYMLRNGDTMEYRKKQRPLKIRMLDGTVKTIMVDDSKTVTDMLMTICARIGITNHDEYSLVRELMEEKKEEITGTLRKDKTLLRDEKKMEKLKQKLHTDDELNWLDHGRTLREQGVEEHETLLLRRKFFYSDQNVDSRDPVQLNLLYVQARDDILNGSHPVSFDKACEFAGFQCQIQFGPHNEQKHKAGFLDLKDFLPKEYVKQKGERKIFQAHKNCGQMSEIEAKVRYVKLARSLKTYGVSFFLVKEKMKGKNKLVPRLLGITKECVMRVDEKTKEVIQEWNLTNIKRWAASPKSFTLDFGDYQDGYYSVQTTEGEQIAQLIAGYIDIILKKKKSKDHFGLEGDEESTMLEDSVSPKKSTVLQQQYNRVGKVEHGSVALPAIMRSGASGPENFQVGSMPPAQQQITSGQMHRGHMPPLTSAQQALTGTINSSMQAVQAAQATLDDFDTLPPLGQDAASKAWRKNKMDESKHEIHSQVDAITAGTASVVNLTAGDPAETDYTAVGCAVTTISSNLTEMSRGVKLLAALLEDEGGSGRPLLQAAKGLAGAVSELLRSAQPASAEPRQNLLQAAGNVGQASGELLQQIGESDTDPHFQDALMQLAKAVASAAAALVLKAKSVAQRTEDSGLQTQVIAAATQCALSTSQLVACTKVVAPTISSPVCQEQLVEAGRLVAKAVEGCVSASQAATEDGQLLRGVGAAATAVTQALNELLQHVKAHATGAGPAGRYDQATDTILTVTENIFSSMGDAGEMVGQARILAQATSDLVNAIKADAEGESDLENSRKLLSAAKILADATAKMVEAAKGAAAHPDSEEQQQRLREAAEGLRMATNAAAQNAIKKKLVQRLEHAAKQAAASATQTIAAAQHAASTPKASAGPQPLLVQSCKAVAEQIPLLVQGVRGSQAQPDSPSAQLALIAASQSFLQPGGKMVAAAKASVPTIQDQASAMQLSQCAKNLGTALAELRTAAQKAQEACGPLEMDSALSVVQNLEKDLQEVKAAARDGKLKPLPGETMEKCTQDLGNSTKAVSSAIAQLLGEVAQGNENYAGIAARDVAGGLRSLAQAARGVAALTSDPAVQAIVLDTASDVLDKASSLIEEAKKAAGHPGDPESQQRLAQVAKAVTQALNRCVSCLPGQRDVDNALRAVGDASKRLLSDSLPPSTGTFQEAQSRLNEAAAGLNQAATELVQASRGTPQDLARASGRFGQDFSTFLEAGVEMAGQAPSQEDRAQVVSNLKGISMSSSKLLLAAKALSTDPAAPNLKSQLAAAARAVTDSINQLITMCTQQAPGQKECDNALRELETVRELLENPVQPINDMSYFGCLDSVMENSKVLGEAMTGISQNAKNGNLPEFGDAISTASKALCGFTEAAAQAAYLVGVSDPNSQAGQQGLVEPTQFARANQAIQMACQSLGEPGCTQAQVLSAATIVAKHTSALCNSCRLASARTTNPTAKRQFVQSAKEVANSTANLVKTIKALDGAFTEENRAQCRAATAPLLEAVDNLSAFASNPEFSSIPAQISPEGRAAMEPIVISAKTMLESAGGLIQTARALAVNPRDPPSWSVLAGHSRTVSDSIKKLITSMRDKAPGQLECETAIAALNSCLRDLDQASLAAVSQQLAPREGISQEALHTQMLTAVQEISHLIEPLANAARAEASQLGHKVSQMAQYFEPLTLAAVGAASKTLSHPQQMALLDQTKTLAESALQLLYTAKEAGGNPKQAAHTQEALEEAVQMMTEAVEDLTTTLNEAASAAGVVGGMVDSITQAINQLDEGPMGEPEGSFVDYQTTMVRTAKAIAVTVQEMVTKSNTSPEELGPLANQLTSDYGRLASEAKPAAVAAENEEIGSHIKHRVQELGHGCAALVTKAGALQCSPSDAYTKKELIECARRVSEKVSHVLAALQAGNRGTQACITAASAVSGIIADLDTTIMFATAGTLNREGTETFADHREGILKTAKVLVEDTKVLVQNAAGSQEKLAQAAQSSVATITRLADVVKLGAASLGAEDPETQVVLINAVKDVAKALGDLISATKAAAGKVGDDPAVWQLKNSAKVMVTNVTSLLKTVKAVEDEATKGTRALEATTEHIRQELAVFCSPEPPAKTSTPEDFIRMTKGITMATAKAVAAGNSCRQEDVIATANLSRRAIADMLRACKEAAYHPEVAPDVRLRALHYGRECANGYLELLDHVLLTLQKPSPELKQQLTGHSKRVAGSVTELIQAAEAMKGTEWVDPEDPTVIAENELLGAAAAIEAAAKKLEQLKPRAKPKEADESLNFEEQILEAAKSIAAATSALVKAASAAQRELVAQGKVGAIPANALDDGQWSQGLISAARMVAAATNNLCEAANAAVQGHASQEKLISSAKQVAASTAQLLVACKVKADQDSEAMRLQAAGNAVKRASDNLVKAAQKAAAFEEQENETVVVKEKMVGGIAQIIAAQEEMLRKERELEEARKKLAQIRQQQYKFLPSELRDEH

B1: Haemagglutinin (HA)-tagged PIPKIγ635 (enzyme, not shown: small tags and cut ends)
chain: MELEVPDEAESAEAGAVTAEAAWSAESGAAAGMTQKKAGLAEAPLVTGQPGPGHGKKLGHRGVDASGETTYKKTTSSTLKGAIQLGIGYTVGNLSSKPERDVLMQDFYVMESIFFPSEGSNFTPAHHFQDFRFKTYAPVAFRYFRELFGIRPDDYLYSLCNEPLIELSNPGASGSVFYVTSDDEFIIKTVMHKEAEFLQKLLPGYYMNLNQNPRTLLPKFYGLYCVQSGGKNIRVVVMNNVLPRVVKMHLKFDLKGSTYKRRASKKEKEKSLPTYKDLDFMQDMPEGLLLDSDTFGALVKTLQRDCLVLESFKIMDYSLLLGVHNIDQQERERQAEGAQSKADEKRPVAQKALYSTAMESIQGGAARGEAIETDDTMGGIPAVNGRGERLLLHIGIIDILQSYRFIKKLEHTWKALVHDGDTVSVHRPSFYAERFFKFMSSTVFRKSSSLKSSPSKKGRGALLAVKPLGPTAAFSASQIPSEREDVQYDLRGARSYPTLEDEGRPDLLPCTPPSFEEATTASIATTLSSTSLSIPERSPSDTSEQPRYRRRTQSSGQDGRPQEEPHAEDLQKITVQVEPVCGVGVVPKEEGAGVEVPPCGASAAASVEIDAASQASEPASQASDEEDAPSTDIYF
As for B1, the binding result was “no binding”.
